Experimental data as given in patent publication US20230272113A1.

Molecular target: human FLT3 on transfected CHO cells (human) (UniProt P36888)
Assay: FACS, scFv on CHO-human FLT3 cells pre-incubated with FLT3 ligand (competitor)

Binder | median [+ligand]/median [w/o ligand]*100
FL-7 (scFv) scFv: QVTLKESGPTLVKPTETLTLTCTVSGFSLNNARMGVSWIRQPPGKALEWLAHIFSNDEKSYSTSLKNRLTISKDSSKTQVVLTMTNVDPVDTATYYCARIVGYGTGWFGYFDYWGQGTQVTVSSGGGGSGGGGSGGGGSDIQMTQSPSSLSASVGDRVTITCRASQDIRTDLAWYQQKPGKAPKRLIYAASSLQSGVPSRFSGSGSGTEFTLTISSLQPEDFATYYCLQHNRYPLTFGGGTKVDIK | > 75%
FL-5 (scFv) scFv: QVTLKESGPMLVKPTETLTLTCTFSGFSLRNARMGVSWIRQPPGKALEWLAHIFWNDEKSYSTSLKSRLTISKDTSKSQVVLTMTNMDPVDTATYYCARIPYYGSGSYNYGMDVWGQGTTVTVSSGGGGSGGGGSGGGGSDIQMTQSPSSLSASVGDRVTITCRASQGIRNDLGWYQQKPGKAPKRLIYAASSLQSGVPSRFSGSGSGTEFTLTISSLQPEDFATYYCLQHNTYPLTFGGGTKVDIK | > 75%
FL-3 (scFv) scFv: QVTLKESGPALVKPTETLTLTCTVSGFSLSNARMAVSWIRQPPGKALEWLAHIFSNGEKSYSTSLKSRLTISKDTSKTQVVLTMTNTDPVDTATYFCARIVGYSDWLLPFDHWGQGIMVTVSSGGGGSGGGGSGGGGSDIQMTQSPSSLSASVGDRVTITCRASQNINRFLNWYQQKPGKAPKLLIYAASSLQSGVPSRFSGSGSGTDFTLTISSLQPEDFATYYCLQHNSYPWTFGQGTKVDIK | > 75%
FL-2 (scFv) scFv: QVTLKESGPVLVKPTETLTLTCTVSGFSLRNARMGVSWIRQPPGKALEWLAHIFSNDEKTYSTSLKSRLTISRDTSKGQVVLTMTKMDPVDTATYYCARIPYYGSGSHNYGMDVWGQGTTVTVSSGGGGSGGGGSGGGGSDIQMTQSPSSLSASVGDRVTITCRASQDIRNDFGWYQQKPGKAPQRLLYAASTLQSGVPSRFSGSGSGTEFTLTISSLQPEDFATYYCLQYNTYPWTFGQGTKVEIK | > 75%
FL-13 (scFv) scFv: QVTLKESGPTLVKPTETLTLTCTLSGFSLNNARMGVSWIRQPPGKALEWLAHIFSNDEKSYSTSLKNRLTISKDSSKTQVVLTMTNVDPVDTATYYCARIVGYGSGWYGFFDYWGQGTLVTVSSGGGGSGGGGSGGGGSDIQMTQSPSSLSASVGDRVTITCRASQGIRNDLGWYQQKPGKAPKRLIYAASTLQSGVPSRFSGSGSGTEFTLTISSLQPEDFATYYCLQHNSYPLTFGGGTKVEIK | > 75%
FL-1 (scFv) scFv: QVTLKESGPVLVKPTETLTLTCTVSGFSLINARMGVSWIRQPPGKALEWLAHIFSNAEKSYRTSLKSRLTISKDTSKSQVVLTMTNMDPVDTATYYCARIPGYGGNGDYHYYGMDVWGQGTTVTVSSGGGGSGGGGSGGGGSDIQMTQSPSSLSASLGDRVTITCRASQGIRNDLGWYQQKPGKAPKRLIYASSTLQSGVPSRFSGSGSGTEFTLTISSLQPEDFATYYCLQHNNFPWTFGQGTKVEIK | > 75%
FL-64 (scFv) scFv: QVQLVESGGGVVQPGRSLRLSCAASGFTFSSYGMHWVRQAPGKGLEWVAVISYDGSNEFYADSVKGRFTISRDNSKNTLYLQMNSLRAEDTAVYYCARGGEITMVRGVIGYYYYGMDVWGQGTTVTVSSGGGGSGGGGSGGGGSDIQMTQSPSSLSASVGNRVTITCRASQSISSYLNWYQQKPGKAPKLLIYAASSLQSGVPSRFSGSGSGTEFTLTISSLQPEDFATYYCLQHNSYPLTFGGGTKVDIK | > 75%
FL-9 (scFv) scFv: QVTLKESGPTLVKPTETLTLTCTVSGFSLSNARMGVSWIRQPPGKALEWLAHIFSNDEKSYSTSLKSRLTISKDTSKSQVVLTMTNMDPVDTATYYCARIPGYGGNFYYHYYGMDVWGQGTTVTVSSGGGGSGGGGSGGGGSDIQMTQSPSSLSASVGDRVTITCRASQGIRNDLAWYQQKPGKAPKRLIYAASTVQSGVPSRFSGSGSGTEFALTISSLQPEDFATYYCLQHNSFPWTFGQGTKVDIK | > 75%
FL-10 (scFv) scFv: QVTLKESGPVLVKPTETLTLTCTVSGFSFRNARMGVSWIRQPPGKALEWLAHIFSNDEKSYSTSLKSRLTISKDTSKSQVVLTLTNMDPVDTATYFCARMPEYSSGWSGAFDIWGQGTMVTVSSGGGGSGGGGSGGGGSDIQMTQSPSSLSASVGDRVTITCRASQDIRDDLGWYQQKPGNAPKRLIYGASTLQSGVPSRFSGSGSGTEFTLTISSLQPEDFATYYCLQHNSYPLTFGGGTKVDIK | > 75%
FL-8 (scFv) scFv: QVTLKESGPALVKPTETLTLTCTVSGFSLSYARMGVSWIRQPPGKALEWLAQIFSNDEKSYSTSLKSRLTISKGTSNSQVVLTMTNMDPEDTATYYCARIVGYGTGWYGFFDYWGQGILVTVSSGGGGSGGGGSGGGGSDIQMTQSPSSLSASVGDRVTITCRASQGIRNDLGWYQQKPGKAPKRLIYAASSLQSGVPSRFSGSGSGTEFTLTISSLQPEDFATYYCLQHNSYPLTFGGGTKVDIK | > 75%
FL-12 (scFv) scFv: QVTLKESGPALVKPTETLTLTCTVSGFSLSNARMGVSWIRQPPGKALEWLANIFSNDEKSYSTSLKSRLTISKGTSKSQVVLTMTNMDPEDTATYYCARIVGYGSGWYGYFDYWGQGTLVTVSSGGGGSGGGGSGGGGSDIQMTQSPSSLSASVGDRVTITCRASQGIRNDLGWYQQKPGKAPQRLIYAASSLQSGVPSRFSGSGSGTEFTLTISSLQPEDFATYYCLQHNSYPLTFGGGTKVEIK | > 75%
FL-4 (scFv) scFv: QVTLKESGPALVKPTETLTLTCTLSGFSLNNAKMGVSWIRQPPGKALEWLAHIFSNDEKSYSTSLKSRLTISKDTSKGQVVLTMTNMDPVDTATYYCARIVGYGSGWYGYFDYWGQGTLVTVSSGGGGSGGGGSGGGGSDIQMTQSPSSLSASVGDRVTITCRASQDIRDDLGWYQQKPGNAPKRLIYGASTLQSGVPSRFSGSGSGTEFTLTISSLQPEDFATYYCLQHNSYPLTFGGGTKVDIK | > 75%
FL-11 (scFv) scFv: QVTLKESGPVLVKPTETLTLTCTLSGFSLNNAKMGVSWIRQPPGKALEWLAQIFSNGEKSYSTSLKSRLTISKDTSKGQVVLTMTNMDPVDTATYYCSRIVGYGSGWYGYFDYWGQGTLVTVSSGGGGSGGGGSGGGGSDIQMTQSPSSLSASVGDRVTITCRASQGIRNDLGWYQQKPGKAPKRLIYGASTLQSGVPSRFSGSGSGTEFTLTISSLQPEDFATYYCLQHNSYPLTFGGGTKVEIK | > 75%
FL-6 (scFv) scFv: QVTLKESGPTLVKPTETLTLTCTLSGFSLNNARMAVSWIRQPPGKTLEWLAHIFSNDEKSYSPSLKSRLTISKDTSKSQVVLTMTNMDPEDTATYYCARIVGYGTGWYGFFDYWGQGILVTVSSGGGGSGGGGSGGGGSDIQMTQSPSSLSASVGDRVTITCRASQGIRNDLGWFQQKPGKAPKRLIYAASVLQSGVPSRFSGSGSGTEFTLTISSLQPEDFATYYCLQHNSYPLTFGGGTKVDIK | > 75%
